The series concerns the molecule itself. Kind of series: cryo-EM structure.

B1: Cps25 (natural protein, Saccharomyces cerevisiae, UniProt Q03323 1-175, looked up)
chain: MNESENSPQHNEVTVPMVEDTSSNADIPMEQIQREDNKNYDKHDNECFDMNGNHNNNSDNLQFDSVPSSATKDLKNIKSVTNQNVKIEESSSTNSVIEESSEPKISKLENVNLAATVGGSQTRKYLNTNVTPHLLAGMRLIAVQQPEDPLRVLGEYLIEQSNILKSGEKESNASK
Turning to B1, the binding result is “binds”.

These data come from PMC6108936 (Cell, 2018).
